Results: patent publication US6635429B1

Assays:
[1] = target: bacterially-expressed hRAR-γ (human) (UniProt P13631); assay: complementation gel retardation with bacterially-expressed hRAR-γ on β-RARE; cpm in the complex per µg of protein of the purification step

Binder | Specific Activity (cpm/µg) [1] [cpm/µg] | OMPdecase activity of the DR1-URA3 reporter in yeast (mRXR-α (mouse)) [fold]
purified HeLa cell RBF (HAP-TSK) (receptor) MSWAARPPFLPQRHAAGQCGPVGVRKEMHCGVASRWRRRRPWLDPAAAAAAAVAGGEQQTPEPEPGEAGRDGMGDSGRDSRSPDSSSPNPLPQGVPPPSPPGPPLPPSTAPTLGGSGAPPPPPMPPPPLGSPFPVISSSMGSPGLPPPAPPGFSGPVSSPQINSTVSLPGGGSGPPEDVKPPVLGVRGLHCPPPPGGPGAGKRLCAICGDRSSGKHYGVYSCEGCKGFFKRTIRKDLTYSCRDNKDCTVDKRQRNRCQYCRYQKCLATGMKREAVQEERQRGKDKDGDGEGAGGAPEEMPVDRILEAELAVEQKSDQGVEGPGGTGGSGSSPNDPVTNICQAADKQLFTLVEWAKRIPHFSSLPLDDQVILLRAGWNELLIASFSHRSIDVRDGILLATGLHVHRNSAHSAGVGAIFDRVLTELVSKMRDMRMDKTELGCLRAIILFNPDAKGLSNPSEVEVLREKVYASLETYCKQKYPEQQGRFAKLLLRLPALRSIGLKCLEHLFFFKLIGDTPIDTFLMEMLEAPHQLA | 7.75e+06 | –
mRXR-α (receptor) MDTKHFLPLDFSTQVNSSSLNSPTGRGSMAVPSLHPSLGPGIGSPLGSPGQLHSPISTLSSPINGMGPPFSVISSPMGPHSMSVPTTPTLGFGTGSPQLNSPMNPVSSTEDIKPPLGLNGVLKVPAHPSGNMASFTKHICAICGDRSSGKHYGVYSCEGCKGFFKRTVRKDLTYTCRDNKDCLIDKRQRNRCQYCRYQKCLAMGMKREAVQEERQRGKDRNENEVESTSSANEDMPVEKILEAELAVEPKTETYVEANMGLNPSSPNDPVTNICQAADKQLFTLVEWAKRIPHFSELPLDDQVILLRAGWNELLIASFSHRSIAVKDGILLATGLHVHRNSAHSAGVGAIFDRVLTELVSKMRDMQMDKTELGCLRAIVLFNPDSKGLSNPAEVEALREKVYASLEAYCKHKYPEQPGRFAKLLLRLPALRSIGLKCLEHLFFFKLIGDTPIDTFLMEMLEAPHQAT | – | 30
